Reference: patent US20180185504A1 (Regeneron, published 2018)

T1: hPRLR.mFc (soluble dimeric human PRLR) (human)
T1 construct: dimeric PRLR construct
T1 chain: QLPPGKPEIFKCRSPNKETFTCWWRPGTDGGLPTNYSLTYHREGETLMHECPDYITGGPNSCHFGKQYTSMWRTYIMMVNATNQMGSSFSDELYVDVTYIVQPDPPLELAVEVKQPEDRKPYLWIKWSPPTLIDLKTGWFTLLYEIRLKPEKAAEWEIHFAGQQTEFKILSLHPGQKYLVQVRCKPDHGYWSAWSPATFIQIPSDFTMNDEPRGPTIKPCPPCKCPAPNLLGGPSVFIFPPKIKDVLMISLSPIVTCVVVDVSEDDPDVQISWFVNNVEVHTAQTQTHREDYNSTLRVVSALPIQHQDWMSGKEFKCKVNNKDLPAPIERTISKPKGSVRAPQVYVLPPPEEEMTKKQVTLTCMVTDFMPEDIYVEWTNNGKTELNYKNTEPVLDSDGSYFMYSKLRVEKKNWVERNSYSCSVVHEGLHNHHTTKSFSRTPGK

T2: macaca fascicularis (mf) PRLR.mmh (soluble monomeric monkey PRLR) (Macaca fascicularis)
T2 construct: called soluble monomeric PRLR protein
T2 chain: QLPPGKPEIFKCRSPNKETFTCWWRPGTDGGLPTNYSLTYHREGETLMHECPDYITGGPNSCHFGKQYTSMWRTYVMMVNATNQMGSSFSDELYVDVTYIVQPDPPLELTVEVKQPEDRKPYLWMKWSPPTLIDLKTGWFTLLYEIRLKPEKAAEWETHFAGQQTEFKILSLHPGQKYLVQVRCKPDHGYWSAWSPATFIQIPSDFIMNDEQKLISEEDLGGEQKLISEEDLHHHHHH

T3: hPRLR.mmh (soluble monomeric human PRLR) (human)
T3 construct: called soluble monomeric PRLR protein
T3 chain: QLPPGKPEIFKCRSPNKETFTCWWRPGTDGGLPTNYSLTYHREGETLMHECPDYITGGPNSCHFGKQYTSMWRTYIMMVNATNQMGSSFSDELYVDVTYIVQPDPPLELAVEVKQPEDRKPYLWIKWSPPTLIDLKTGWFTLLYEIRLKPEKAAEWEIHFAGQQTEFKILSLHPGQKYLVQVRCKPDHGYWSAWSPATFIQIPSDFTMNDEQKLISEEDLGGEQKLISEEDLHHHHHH


Columns and labels:
Assay in all cases: SPR Biacore, 25 C, mAb capture
[1] = biological target: T1, hPRLR.mFc (soluble dimeric human PRLR)
Procedure: (§1) Measurements were conducted on a T200 Biacore instrument. Kinetic association (kₐ) and dissociation (kd) rate constants were determined by processing and fitting the data to a 1:1 binding model using Scrubber 2.0 curve fitting software.

[2] = biological target: T2, macaca fascicularis (mf) PRLR.mmh …
Procedure: as §1

[3] = biological target: T3, hPRLR.mmh (soluble monomeric human PRLR)
Procedure: as §1

Row | Kd [1] [nM] | T½ [1] [h] | koff [1] [s⁻¹] | kon [1] [M⁻¹ s⁻¹] | Kd [2] [nM] | T½ [2] [h] | koff [2] [s⁻¹] | kon [2] [M⁻¹ s⁻¹] | Kd [3] [nM] | T½ [3] [h] | koff [3] [s⁻¹] | kon [3] [M⁻¹ s⁻¹] | Binder
1 | 0.112 | 2.15 | 8.94e-05 | 798000 | 1.77 | 0.217 | 0.000875 | 495000 | 1.14 | 0.233 | 0.000818 | 715000 | H1H6774P (antibody, human IgG1, V domains shown, Human IgG1 Fc (H1H)) VH: EVQLVESGGGLAQPGGSLRLSCVASGFTFSTYWMSWVRQAPGKGLDWVGNIKQDGSEQNYVDSVRGRFTISRDNAKNSLFLQMNSLRAEDTGVYYCATLLTKGDYWGQGTLVTVSS VL: DIQMTQSPSSLSASVGDSVTITCRASQDISNYLDWFQQKPGKAPKSLIYAASILQGGVPSRFSGSGYGTDFTLTISSLQPEDFATYYCRQYKTYPFTFGPGTKVDIK
2 | 0.225 | 2.7 | 7.13e-05 | 317000 | 1.05 | 0.683 | 0.000279 | 266000 | 0.685 | 0.783 | 0.000247 | 360000 | H1H6782P (antibody, human IgG1, V domains shown, Human IgG1 Fc (H1H)) VH: EVQLVESGGGLVQPGRSLRLSCAASGFTFDDYAMHWVRQAPGKGLEWVSGIIWNSGHIGYGDSVKGRFTISRDNAKKSLYLQMNSLRAEDTALYYCARDSGRYQSYFDYWGQGTLVTVSS VL: DIQMTQSPSTLSASVGDRVTITCRASHIISSWLAWYQQKPGKAPKVLIFKASSLESGVPSRFSGSGSGTEFTLTISSLQPDDFATYYCQQYNTYSRTFGQGTKVEIK
3 | 0.0684 | 9.8 | 1.97e-05 | 287000 | 1.14 | 1.47 | 0.000131 | 115000 | 0.49 | 2.62 | 7.35e-05 | 150000 | H1H6975N (antibody, human IgG1, V domains shown, Tested with human IgG1 Fc (H1H); also called H2M6975N) VH: EVHLVESGGGLVQPGGSLRLSCAASGFTFSSYEMNWVRQTPGKGLEWISHISSRSVIIYYADSVKGRFTISRDNAKNSLFLQMNSLRAEDTAVYFCAGITIFGIPEYWGQGTLVTVSS VL: EIVLTQSPATLSLSPGERATLSCRASQSVSSYFAWYQQKPGQAPRLLIYDASSRATGIPTRFSGSGSGTDFTLTISSLEPEDFAVYYCQQRSSWPITFGQGTRLEIK
4 | 0.0392 | 5.65 | 3.41e-05 | 869000 | 0.254 | 1.43 | 0.000134 | 527000 | 0.124 | 1.7 | 0.000113 | 907000 | H1H6765P (antibody, human IgG1, V domains shown, Human IgG1 Fc (H1H)) VH: EVQLVESGGGVVRPGGSLRLSCVGSGFSFDDHGMNWVRQGPGKGLEWVSGFNWNGGSTNYAESVKGRFTISRDNARNSLFLQMNSLRAEDTALYYCVRGRSGWFNDAFDVWGPGTMVTVSS VL: EIVLTQSPGTLSLSPGERATLSCRASQTINSNYLAWYRQKPGQTPRLLIYGTSSRATGIPDRFSGSGSGTDFSLTISRLEPEDFAVFYCQQYAGLPTFGPGTKVDIK
5 | 0.236 | 3.18 | 6.05e-05 | 257000 | 0.986 | 1.37 | 0.000141 | 143000 | 0.61 | 1.52 | 0.000127 | 208000 | H1H6781P (antibody, human IgG1, V domains shown, Human IgG1 Fc (H1H)) VH: EVQLVESGGDLVQPGESLRLSCTASGFTFNSYEMNWVRQAPGKGLEWVSYISSSGGTKYYVDSVKGRFTISRDNAKKSLYLQMNSLRADDTALYYCARLNGVDVFDIWGQGTMVTVSS VL: DIQMTQSPSSLSASVGDRVTITCRASQDIFNYLAWFQQKPGKVPELLISAASTLQSGVPSRFSGSGSGTYFTLTISSLQPEDIATYYCQRYNSAPLTFGGGTKVEIK
6 | 0.231 | 3.17 | 6.07e-05 | 263000 | 0.738 | 1.15 | 0.000167 | 227000 | 0.567 | 1.13 | 0.000171 | 301000 | H1H6785P (antibody, human IgG1, V domains shown, Human IgG1 Fc (H1H)) VH: EVQLVESGGGLVQPGGSLRLSCAASGFTFSSYEMNWVRQAPGKGLEWISYISSRGGTIYYADSIKGRFTIYRDNARNSLYLQMNSLRAEDTAIYYCARLSGVDIFDIWGQGTMVTVSS VL: DIQMTQSPSSLSASVGDRVTITCRASQGISNYLAWYQQKPGKVPKLLIYFASTLQSGVPSRFSGGGSGTDFTLTISSLQPEDVATYYCQRYNSAPLTFGGGTKVEIK
7 | 0.0992 | 2.98 | 6.45e-05 | 651000 | 0.511 | 0.917 | 0.000208 | 408000 | 0.259 | 1.07 | 0.000179 | 692000 | H1H6762P (antibody, human IgG1, V domains shown, Human IgG1 Fc (H1H)) VH: QVQLVESGGGVVQPGRSLRLSCAASGFTFSHYGMVWVRQPPGKGLEWVALISFDGTTKYYADSVKGRFTISRDNSKNTLYLQMNSLRAEDTAVYFCVGAIAAAAFDLWGRGTLVTVSS VL: EIVMTQSPATLSVSPGERATLSCRASQSVSSDLAWYQQKPGQAPRLLIYSASARATGIPARFTGSGSGTDFTLTISSLQSEDFAVYYCQQYNNWPMYTFGQGTKLEIK
8 | 0.192 | 1.85 | 0.000104 | 542000 | 2.04 | 0.25 | 0.000793 | 389000 | 1.41 | 0.233 | 0.000799 | 565000 | H1H6790P (antibody, human IgG1, V domains shown, Human IgG1 Fc (H1H)) VH: EVQLVESGGGLVQPGGSLRLSCAASGFTFSSYAMTWVRQAPGKGLEWVSAITGSVGNTYYADSVKGRFTISRDNSKNTLYLQMNSLGAEDTAEYYCAKGAGMTTNWYLDLWGRGTLVTVSS VL: DIVMTQSPDSLAVSLGARATINCKSSQSVLYSSNNQNYLTWYQQKPGQPPKLLIKWASTRESGVPDRFSGSGSGTDFTLTISSLQAEDVAVYYCQQYASSPYTFGQGTKLEIK
9 | 0.0906 | 1.91 | 0.000101 | 1.12e+06 | 1.75 | 0.237 | 0.000814 | 466000 | 1.59 | 0.223 | 0.000864 | 544000 | H1H6976N (antibody, human IgG1, V domains shown, Tested with human IgG1 Fc (H1H); also called H2M6976N) VH: EVQLLESGGGFVQPGGSLRLSCAASGFTFSSYAMSWVRQAPGKGLEWVSIISSNGRYTYYADSVKGRFTISRDNSKNTLYLQMNSLRAEDTAVYYCATVTGDWFDPWGQGTLVTVSS VL: DIQLTQSPSFLSASVGDRVTITCWASQDIDISLAWYQQKPGKAPKLLIYAASTLQSGVPSKFSGSGSGTDFTLTISSLQPEDFSTYYCQQLNSYPITFGQGTRLDIK
10 | 0.0439 | 4.71 | 4.08e-05 | 931000 | 0.416 | 0.593 | 0.000325 | 782000 | 0.302 | 0.748 | 0.000257 | 852000 | H1H6966N (antibody, human IgG1, V domains shown, Tested with human IgG1 Fc (H1H); also called H2M6966N) VH: QVQLVQSGAEVQKPGASVKVSCKVSGYTLTALSIHWVRQAPGKGLEWMGNFDPGDGETIHAQKFQGRVTMTGDTSTDTAYMELSSLRSEDTAVYYCVGVTFDYWGQGTLVTVSS VL: EIVMTQSPATLSVSPGERATLSCRASQSVASNLAWYQQKPGQAPRLLLYGASTRATGIPARFSGSGSGTEFTLTISSLQSEDFALYYCQHYNNWPLTFGGGTKVEIK
11 | 0.11 | 4.32 | 4.45e-05 | 407000 | 3.08 | 0.328 | 0.000585 | 190000 | 1.35 | 0.58 | 0.000332 | 246000 | H1H6967N (antibody, human IgG1, V domains shown, Tested with human IgG1 Fc (H1H); also called H2M6967N) VH: EVQLVESGGDLVHPGRSLRLSCAASGFPFDEYAMHWVRQVPGKGLEWVSGISWSNNNIGYADSVKGRFTISRDNAKNSLYLQMNSLRPEDTAFYYCAKSGIFDSWGQGTLVTVSS VL: EIVMTQSPATLSVSPGERATLSCRASQSVSRDLAWYQQKPGQAPRLLIHGASTRATGIPARFSGSGSGAEFTLIISSLQSEDFAVYYCQQYNNWPLTFGGGTKVEIK
12 | 0.332 | 2.2 | 8.77e-05 | 264000 | 1.81 | 0.567 | 0.000341 | 189000 | 1.43 | 0.467 | 0.000413 | 288000 | H1H6783P (antibody, human IgG1, V domains shown, Human IgG1 Fc (H1H)) VH: QVQLQQSGPGLVKPSQTLSLTCAISGDSVSSNTFAWNWIRQSPSRGLEWLGRTYYRSKWYIDYAESVKSRITITPDTSKNQFSLQLNSVTPEDTALYYCAGGYTYAPRGAFDIWGQGTMVTVSS VL: not shown
